Targets include DOR; MOR; KOR.
Test in all cases: binding test (Ki), method not described

Square brackets hold non-standard residues; d marks the D form. Ends that are not written are not given here. Dmt = Cc1cc(O)cc(C)c1C[C@H](N)C(=O)O

The term Ki denotes the dissociation constant of the complex between target and ligand, obtained from inhibition or displacement. Read a high Ki as lower affinity.

Sequence of MOR (P35372 whole entry): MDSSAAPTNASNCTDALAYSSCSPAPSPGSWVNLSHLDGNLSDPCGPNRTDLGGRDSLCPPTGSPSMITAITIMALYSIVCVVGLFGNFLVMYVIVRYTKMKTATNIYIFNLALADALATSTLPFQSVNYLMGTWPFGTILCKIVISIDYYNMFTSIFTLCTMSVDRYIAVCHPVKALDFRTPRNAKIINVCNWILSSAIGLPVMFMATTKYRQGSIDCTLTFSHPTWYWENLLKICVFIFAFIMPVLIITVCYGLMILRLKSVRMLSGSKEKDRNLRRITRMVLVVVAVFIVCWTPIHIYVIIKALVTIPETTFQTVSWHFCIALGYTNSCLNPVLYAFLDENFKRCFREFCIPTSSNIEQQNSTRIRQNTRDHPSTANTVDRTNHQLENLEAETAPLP

B1: CM-58 (peptide)
peptide: [Dmt]PWFQFQFK-NH2
modifications: N-terminus assumed
SMILES: Cc1cc(O)cc(C)c1C[C@H](N)C(=O)N1CCC[C@H]1C(=O)N[C@@H](Cc1c[nH]c2ccccc12)C(=O)N[C@@H](Cc1ccccc1)C(=O)N[C@@H](CCC(N)=O)C(=O)N[C@@H](Cc1ccccc1)C(=O)N[C@@H](CCC(N)=O)C(=O)N[C@@H](Cc1ccccc1)C(=O)N[C@@H](CCCCN)C(N)=O
Take B1: the Ki turned out to be 15 nM with DOR, 7.5 nM in the experiment with MOR and 120 nM with KOR.

B2: CM-56 (peptide)
peptide: [Dmt]PFFQFQFK-NH2
modifications: N-terminus assumed
SMILES: Cc1cc(O)cc(C)c1C[C@H](N)C(=O)N1CCC[C@H]1C(=O)N[C@@H](Cc1ccccc1)C(=O)N[C@@H](Cc1ccccc1)C(=O)N[C@@H](CCC(N)=O)C(=O)N[C@@H](Cc1ccccc1)C(=O)N[C@@H](CCC(N)=O)C(=O)N[C@@H](Cc1ccccc1)C(=O)N[C@@H](CCCCN)C(N)=O
Take B2: the figures for the Ki in the experiment with DOR, in the experiment with MOR and with KOR were 176 nM, 65 nM and 337 nM, respectively.

The record behind these values is patent US20200246472A1.
